Experimental findings from PMC10352329 (2023) are described below.

Where no end group is shown, it is not given here.

Assay [1] concerns the target 180-bp unmodified nucleosome (human, UniProt P04908 1-130; P68431 1-136; P62805 1-103). The experiment in a line: MST.
Assay [2] concerns the target T1, human p300BRP (residues 1048–1282), wild type (human, UniProt Q09472 1048-1282, fluorescently labeled with a His tag Labeling Kit (microscale thermophoresis only)).
T1 chain: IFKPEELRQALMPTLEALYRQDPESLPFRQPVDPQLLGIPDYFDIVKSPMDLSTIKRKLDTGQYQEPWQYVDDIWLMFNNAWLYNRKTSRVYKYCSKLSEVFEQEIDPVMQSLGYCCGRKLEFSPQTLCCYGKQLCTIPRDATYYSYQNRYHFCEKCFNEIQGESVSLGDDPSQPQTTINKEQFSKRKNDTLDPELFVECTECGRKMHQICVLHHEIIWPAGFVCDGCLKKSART
Put plainly: ITC.

Assay [3] has as its target N-terminal bromodomain of human BRD4 (residues 44–168) (human, UniProt O60885 44-168). Put plainly: ITC.

B1: human p300BRP (residues 1048–1282), 4A-substituted mutant (R1133A, K1134A, R1137A, K1140A) (domain or fragment)
chain: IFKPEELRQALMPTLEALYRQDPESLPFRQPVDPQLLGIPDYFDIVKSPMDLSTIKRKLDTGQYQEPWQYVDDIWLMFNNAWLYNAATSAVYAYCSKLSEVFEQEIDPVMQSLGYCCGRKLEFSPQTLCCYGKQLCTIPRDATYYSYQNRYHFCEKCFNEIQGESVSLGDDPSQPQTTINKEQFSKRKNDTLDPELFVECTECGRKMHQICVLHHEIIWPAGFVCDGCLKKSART
modifications: fluorescently labeled with a His tag Labeling Kit (microscale thermophoresis)
Turning to B1, a half-maximal response in assay [1] (EC50) required 0.0073 µM.

B2: di-acetylated H2B peptide K12ac/K15ac (peptide)
chain: PAPKK(Ac)GSK(Ac)KAVTK
In turn, B2 returned a Kd in assay [2] of more than 500 µM.

B3: di-acetylated H2B peptide K20ac/K23ac (peptide)
chain: KAVTK(Ac)AQK(Ac)KDGK
As for B3, the Kd in assay [3] is more than 500 µM.
